± gives the half width of the 95% confidence interval.
Columns and labels:
[1] = folding stability dG unfold from trypsin proteolysis; higher = more stable
Procedure, shortened: (§1)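 How resistant each design was to proteolysis was captured as K50, inferred by Bayesian fitting of sequencing counts. Unfolding free energy was then derived relative to a sequence-predicted unfolded-state K50 and a shared folded-state K50, per protease or combined. Digestion used trypsin and chymotrypsin at 11 threefold-diluted concentrations plus a no-protease condition, on mini-proteins under 80 residues without cysteine in a PA-tagged cDNA display construct. Designs were kept only when AlphaFold2 dimer inter-PAE was above 15.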

[2] = folding stability dG unfold from chymotrypsin proteolysis; higher = more stable
Procedure, shortened: as §1

[3] = folding stability dG unfold (combined trypsin and chymotrypsin); higher = more stable
Procedure, shortened: as §1

Sequence | folding stability dG unfold [1] [kcal/mol] | folding stability dG unfold [2] [kcal/mol] | folding stability dG unfold [3] [kcal/mol]
SAGGSAGGSAMTVLVMEIKIELRVNEDGSLELRMEIEIKPVEPITLEELAEKLGLSKEELLSAGGSAGGSAG [r3_338_TrROS_Hall] | 3.28 ± 0.12 | 2.91 ± 0.085 | 3.03 ± 0.14
SAGGSAGGSAGGSKKKVLYIKIDVKPNMTPEEVAKLLQEKFGVKIKKVEVENGYLKIYFSAGGSAGGSAGGS [r4_469_TrROS_Hall] | 2.82 ± 0.062 | 3.8 ± 0.044 | 3.49 ± 0.048
SAGGSATVEVATEPDGTVTVTTLETDPAEPRGTVTTTTVTVTTEPTPEPFLSSSTTTTTTATAPAPSAGGSA [r15_438_JUSTAS] | 0.138 ± 0.048 | -0.291 ± 0.075 | -0.0573 ± 0.059
SAGGSAGGSAGGGVGIAEISFDPETQTVTIKAYNPETEEITEITIPVTNPLPLDLSDITSAGGSAGGSAGGS [r10_331_TrMRF] | 0.477 ± 0.085 | 0.858 ± 0.14 | 0.725 ± 0.2
SAGGSFWVFVIEISVKFEQYGDPDGNWKFEIEKVDVKITEIIPIPPEMMDKLREAKAEGMEPEEILSAGGSA [r2_327_TrROS] | 1.65 ± 0.15 | 3.49 ± 0.11 | 3.09 ± 0.39
SAGSITIPIDDPEEMKDQLKNIAENFGMSNQDAEQFKDQLKENIEIHRDGDRWYITIQPPPPPDPGQPPSAG [r5_717_TrROS] | 0.51 ± 0.15 | -0.145 ± 0.55 | -0.121 ± 0.47
SAGGSAGGMLLDEDGNLVVKIKLENGEEFEAKVTEIKDGKITVEVNGKKVEINAKDIELLPEDESAGGSAGG [r6_575_TrROS_Hall] | 2.23 ± 0.088 | 2.27 ± 0.05 | 2.31 ± 0.096
SAGGMKLPENAKVVKKIEIKDEKTGKTFKATIVKNKDGSLYIFIEKDGKIYKFKIENGKIKMEEIPPSAGGS [r16_711_TrROS_Hall] | 3.75 ± 0.75 | 4.37 ± 0.25 | 4.07 ± 0.55
SAGGMTPEELREKAKKLAEELAKKLKEKYPNVKVEVEVDEETKKVKIKVKNKKTGKTYEITINLEELLSAGG [r13_354_TrROS_Hall] | 3.85 ± 0.47 | 3.94 ± 0.22 | 4.09 ± 0.42
SAGSYSVTADVTVHPDGTVDVTLTITTNGEDGTTETSTVLPLTLDLPPGTAVTVTVDPNNGTVTVTVEASAG [r5_179_JUSTAS] | 3.01 ± 0.14 | 4.14 ± 0.058 | 3.89 ± 0.079
SAGGSAGGSAGIEIHVMEDPDGRWWLMITIKVKYKVRNPEDGDPIFEFEVTYTIMIWLKASAGGSAGGSAGG [r17_124_TrROS] | 4.3 ± 0.24 | 5.9 ± 0.17 | > 6
SAGGSAGGSALEIPFEVVDEKDFLLEGDYIVRVAELKNGLRALAIYDPKTGKVLVIVSPGGSAGGSAGGSAG [r3_438_TrMRF] | 1.92 ± 0.15 | 2.07 ± 0.057 | 2.17 ± 0.17
SAGKPKVKVKKITVTITYDPETGTITIEATIEIDGKTIKLTITITLPEELRNLKPGDTITIEITIIIEPSAG [r5_714_TrROS_Hall] | 3.4 ± 0.17 | 2.86 ± 0.13 | 3.15 ± 0.12
SAGGMMTIEELKKLPPGAKVGDKIKIRNPATGETFTVTVLPDGRIKIEVDGKIYELPPGAEIVEIEKSAGGS [r8_162_TrROS_Hall] | 1.93 ± 0.086 | 2.36 ± 0.076 | 2.17 ± 0.13
SAGGSMTTTTVTVTDPAGNTTTYTFPSSVPLEEIVEAVSKALGRPVTVLSVTTDPSGTTTVTLAVPGSAGGS [r8_285_JUSTAS] | 4.33 ± 0.3 | 5.131 ± 0.047 | 5.17 ± 0.13
SAGGSAGGMKIIKYDKKTKKVLIYYDEETKEWYVRNKNGKIYKFKSVEEALKKLPVKVEIVKVPSAGGSAGG [r6_752_TrROS_Hall] | 1.5 ± 0.035 | 1.6 ± 0.14 | 1.67 ± 0.089
SAMMVVYYDPETGELVLVDPSEIPPELVEKGIEPVRLVPLRILVEVESEEEAEELARLFPDLVEVSLNPSAG [r14_638_TrMRF] | 1.97 ± 0.045 | 1.83 ± 0.032 | 1.88 ± 0.098
SAGGSAGGSAGKPTLKLVLKFDSPEQAKAAAEALAKAGYKVKVELKEYPDGLYLVVTVEPSAGGSAGGSAGG [r11_677_TrROS_Hall] | 3.29 ± 0.12 | 4.41 ± 0.13 | 4.2 ± 0.2
SAGGSAGGSAAPLYELEILSVDLDPDNPTVYVLARIPGTSNYVLITFPPNGDVYAYASPLPSAGGSAGGSAG [r3_294_TrMRF] | 1.95 ± 0.06 | 2.37 ± 0.06 | 2.25 ± 0.17
SAGGSAGGSAGMKNKNYKVYTYKINIIDPGYENTTIIVEPNPAKPKAKPITIPIIIVEPASAGGSAGGSAGG [r11_257_TrMRF] | 0.57 ± 0.083 | 1.03 ± 0.18 | 0.797 ± 0.21
SAGGMTETITGEFDDEEEAIAYAKKIVKEKYPNKNVTMEIETTYDPKTGKYKVTATITIPDEGEEHHSAGGS [r8_17_JUSTAS] | 4.72 ± 0.35 | 5.61 ± 0.18 | 5.94 ± 0.37

Sequence | folding stability dG unfold [1] [kcal/mol] | folding stability dG unfold [2] [kcal/mol] | folding stability dG unfold [3] [kcal/mol]
SAGGSAMIEEKLIEIPPIPVPYPDGSVQKVPVLVEETVELKPFIDPNTDKTSTAKTVTKRKVIFPSSAGGSA [r15_884_JUSTAS] | -0.255 ± 0.21 | 0.76 ± 0.084 | 0.379 ± 0.15
SAGGSAGGSKEIVIKVNVSEEDLKEKAEELLKKLEELLPPGAKIKKIEIEYDEETGELVIKIESAGGSAGGS [r12_308_TrROS_Hall] | 2.49 ± 0.22 | 1.94 ± 0.15 | 2.26 ± 0.18
SAGGSAGGSAGLLPIEELLKKNPEPVTFMVKDNDTLYRIEITPKDGKWTIEIEPLPGMKPSAGGSAGGSAGG [r11_549_TrROS] | 0.756 ± 0.021 | 1.49 ± 0.077 | 1.2 ± 0.043
SAMKITIEEVEVKEGDTVTIRIDASEEELENFLKELAEKLGAEVVEVEVKKNENGSLEVTVKVKEVKKPSAG [r14_655_TrROS_Hall] | 1.2 ± 0.11 | 0.476 ± 0.13 | 1.04 ± 0.17
SAGGSAGGLHPDEEFVVLFRIDVRARPVSPNAHPELKKKFPNAVIVEAKIDVLILPKEKVKELFSAGGSAGG [r6_830_TrMRF] | 2.84 ± 0.1 | 3.44 ± 0.082 | 3.18 ± 0.19
SAGGSAGGSAAKIELEDGTLRITLTRTVRDPATGETHTETLTLEIKLPPAPPPVVVVSPEDLSAGGSAGGSA [r18_501_TrROS_Hall] | 2.32 ± 0.072 | 3.24 ± 0.037 | 2.88 ± 0.092
SAGGSAGGSAEPPEPEVVAVTVEITEEDGELTITVTNEDTGEKYTFTLKNVEVKPGDTLLIRSAGGSAGGSA [r18_89_TrROS_Hall] | 0.402 ± 0.26 | 1.77 ± 0.34 | 1.21 ± 0.56
SKPGKTIMIMITMDNIKEFLEELPLEPNMEVEIMFMNPNGKMRTLTIRNGEIDSIEPFPNFPDYWMIMIKSA [r9_849_TrROS] | 2.69 ± 0.071 | 2.92 ± 0.07 | 2.78 ± 0.24
SAGGSAGGSAGGLPDREILEVRVLNPEREETGLRVRVEVVLPDGPVTIELPAEEVKELASAGGSAGGSAGGS [r10_771_TrMRF] | -0.0431 ± 0.068 | 1.03 ± 0.024 | 0.726 ± 0.071
SAGGSAGGSDEEVEVTLYPVDPSAPDDTVYYAEVTFPNGLVARYRFRKKDGKVEGELVEVKPASAGGSAGGS [r12_1049_TrMRF] | 1.65 ± 0.048 | 1.95 ± 0.11 | 1.91 ± 0.083
SAGGSAMTTIVKTEPPTLDEEGNPYIRLTIKFPNGGTTTITLAPSELPQYLADLPPGFEVEEINPLSAGGSA [r15_339_JUSTAS] | 2.41 ± 0.11 | 2.69 ± 0.038 | 2.65 ± 0.11
SAGGSAGGSAGMTLEELAAADPDAVVPVKVPGTDTDVDVTVEPGAVRFTFPDGTTATVPASAGGSAGGSAGG [r17_128_JUSTAS] | -0.307 ± 0.11 | 0.112 ± 0.19 | -0.046 ± 0.17
SAGGSAGGSSVSVSFPSSVTKVEPELNDPNLTTFFESPGLVIKVTVVPGTGKVIIEKKPLSELSAGGSAGGS [r12_858_JUSTAS] | 0.858 ± 0.023 | -0.663 ± 0.13 | 0.342 ± 0.053
SAGGSAEKEVYLVPFESEEKREKLREALLAEPGIEEVKETEDGVLLVTVPKGLSDKVEKAIKEAGISAGGSA [r15_834_TrMRF] | 1.21 ± 0.047 | 1.08 ± 0.025 | 1.17 ± 0.086
SAGGSAGGSAGGMEVKTVEDPKGLTVEVSPPVGTATTVYGDETVTHTLSPSATVALEPASAGGSAGGSAGGS [r10_637_JUSTAS] | -0.0233 ± 0.042 | 0.435 ± 0.033 | 0.31 ± 0.1
SAGGRIKDIEPIPPNDPPGQKLTIKFPDGGPIEIPMEKEPDENGPYYYKFKLQVNNGEIEVMFRIPNSAGGS [r8_360_TrROS] | 3.73 ± 0.25 | 5.47 ± 0.16 | 5.18 ± 0.32
SAGGSKIRIVEIQPSNGFTIKIRPKNGKKMTIPIPPDDMNDPENWERFARTLAKWFEKNGVKDIEISAGGSA [r2_249_TrROS] | 0.312 ± 0.17 | 0.615 ± 0.37 | 0.538 ± 0.26
SAGKPLPKLKTYEVDVPDNKKVKIEVYKLPDGTAIVKIKDDNGNESEIEIPLSLLENLSVEDLVKLAKSAGG [r19_47_TrMRF] | 0.77 ± 0.028 | 2.28 ± 0.047 | 1.9 ± 0.095
SMKPGEKLEIEVEIKVEEEDEEKRKKALEEAEEKLRELFEKLGLKDIKKVEVVEVEKLPDGTVKVKIRIDSA [r9_754_TrROS_Hall] | 2.39 ± 0.18 | 1.32 ± 0.11 | 1.71 ± 0.24
SAMVVPVKVELEIRVPGTPEEALEIAEELAKAFESLGNVEVDLELIEKSEDGSYIIKLTVTNYLPPELFSAG [r14_413_TrMRF] | 0.905 ± 0.1 | 1.99 ± 0.11 | 1.53 ± 0.21
SAGGSIVDRIRKILKEYGYTAQVERNGDGITIVVQFNKEQRKKIVSEIQEDFGYPIKIEVMPPGQELSAGGS [r16_514_TrROS] | 1.97 ± 0.06 | 1.94 ± 0.027 | 2.03 ± 0.11
